Laboratory results published in publication PMC2808332, “Expanding the Substantial Interactome of NEMO Using Protein Microarrays” (PLoS ONE, 2010).

B1: Nucleosome assembly protein 1-like 5 (natural protein, human, UniProt Q96NT1 1-182, looked up)
chain: MADSENQGPAEPSQAAAAAEAAAEEVMAEGGAQGGDCDSAAGDPDSAAGQMAEEPQTPAENAPKPKNDFIESLPNSVKCRVLALKKLQKRCDKIEAKFDKEFQALEKKYNDIYKPLLAKIQELTGEMEGCAWTLEGEEEEEEEYEDDEEEGEDEEEEEAAAEAAAGAKHDDAHAEMPDDAKK
notes: Nucleosome assembly protein 1-like 5, human; also called NAP1L5; source: insect cell/baculovirus, purified, spotted (Invitrogen Protoarray v4.0)
B2: t-complex 10 (mouse)-like (natural protein, human, UniProt Q8TDR4 1-215, looked up)
chain: MLAGQLEARDPKEGTHPEDPCPGAGAVMEKTAVAAEVLTEDCNTGEMPPLQQQIIRLHQELGRQKSLWADVHGKLRSHIDALREQNMELREKLRALQLQRWKARKKSAASPHAGQESHTLALEPAFGKISPLSADEETIPKYAGHKNQSATLLGQRSSSNNSAPPKPMSLKIERISSWKTPPQENRDKNLSRRRQDRRATPTGRPTPCAERRGGV
notes: t-complex 10 (mouse)-like, human; also called TCP10L; source: insect cell/baculovirus, purified, spotted (Invitrogen Protoarray v4.0)
B3: Ring finger protein 7 (sensitive to apoptosis gene, SAG) (natural protein, human, UniProt Q9UBF6-1 1-113, looked up)
chain: MADVEDGEETCALASHSGSSGSKSGGDKMFSLKKWNAVAMWSWDVECDTCAICRVQVMDACLRCQAENKQEDCVVVWGECNHSFHNCCMSLWVKQNNRCPLCQQDWVVQRIGK
notes: Ring finger protein 7 (sensitive to apoptosis gene, SAG), human; also called RNF7; source: insect cell/baculovirus, purified, spotted (Invitrogen Protoarray v4.0)
B4: PIM2 (printed gene product: Pediatric index of mortality 2) (natural protein)
chain: not shown
notes: source: insect cell/baculovirus, purified, spotted (Invitrogen Protoarray v4.0)
B5: Calbindin D28K (natural protein, human, UniProt P05937-1 1-261, looked up)
chain: MAESHLQSSLITASQFFEIWLHFDADGSGYLEGKELQNLIQELQQARKKAGLELSPEMKTFVDQYGQRDDGKIGIVELAHVLPTEENFLLLFRCQQLKSCEEFMKTWRKYDTDHSGFIETEELKNFLKDLLEKANKTVDDTKLAEYTDLMLKLFDSNNDGKLELTEMARLLPVQENFLLKFQGIKMCGKEFNKAFELYDQDGNGYIDENELDALLKDLCEKNKQDLDINNITTYKKNIMALSDGGKLYRTDLALILCAGDN
notes: also called CALB1; source: insect cell/baculovirus, purified, spotted (Invitrogen Protoarray v4.0)
B6: Prefoldin 5, transcript variant 1 (natural protein, human, UniProt Q99471-1 1-154, looked up)
chain: MAQSINITELNLPQLEMLKNQLDQEVEFLSTSIAQLKVVQTKYVEAKDCLNVLNKSNEGKELLVPLTSSMYVPGKLHDVEHVLIDVGTGYYVEKTAEDAKDFFKRKIDFLTKQMEKIQPALQEKHAMKQAVMEMMSQKIQQLTALGAAQATAKA
notes: Prefoldin 5, human; also called PFDN5; source: insect cell/baculovirus, purified, spotted (Invitrogen Protoarray v4.0)
B7: Tumor protein, translationally-controlled 1 (natural protein, human, UniProt P13693 1-172, looked up)
chain: MIIYRDLISHDEMFSDIYKIREIADGLCLEVEGKMVSRTEGNIDDSLIGGNASAEGPEGEGTESTVITGVDIVMNHHLQETSFTKEAYKKYIKDYMKSIKGKLEEQRPERVKPFMTGAAEQIKHILANFKNYQFFIGENMNPDGMVALLDYREDGVTPYMIFFKDGLEMEKC
notes: Tumor protein, translationally-controlled 1, human; also called TPT1; source: insect cell/baculovirus, purified, spotted (Invitrogen Protoarray v4.0)
B8: Nucleolar protein family A, member 2 (natural protein, human, UniProt Q9NX24 1-153, looked up)
chain: MTKIKADPDGPEAQAEACSGERTYQELLVNQNPIAQPLASRRLTRKLYKCIKKAVKQKQIRRGVKEVQKFVNKGEKGIMVLAGDTLPIEVYCHLPVMCEDRNLPYVYIPSKTDLGAAAGSKRPTCVIMVKPHEEYQEAYDECLEEVQSLPLPL
notes: Nucleolar protein family A, member 2, human; also called NOLA2; source: insect cell/baculovirus, purified, spotted (Invitrogen Protoarray v4.0)
B9: Proteasome (prosome, macropain) subunit, alpha type, 3 (natural protein, human, UniProt P25788-1 1-255, looked up)
chain: MSSIGTGYDLSASTFSPDGRVFQVEYAMKAVENSSTAIGIRCKDGVVFGVEKLVLSKLYEEGSNKRLFNVDRHVGMAVAGLLADARSLADIAREEASNFRSNFGYNIPLKHLADRVAMYVHAYTLYSAVRPFGCSFMLGSYSVNDGAQLYMIDPSGVSYGYWGCAIGKARQAAKTEIEKLQMKEMTCRDIVKEVAKIIYIVHDEVKDKAFELELSWVGELTNGRHEIVPKDIREEAEKYAKESLKEEDESDDDNM
notes: Proteasome (prosome, macropain) subunit, alpha type, 3, human; also called PSMA3; source: insect cell/baculovirus, purified, spotted (Invitrogen Protoarray v4.0)
B10: PHD finger protein 7 (natural protein, human, UniProt Q9BWX1-1 1-381, looked up)
chain: MKTVKEKKECQRLRKSAKTRRVTQRKPSSGPVCWLCLREPGDPEKLGEFLQKDNISVHYFCLILSSKLPQRGQSNRGFHGFLPEDIKKEAARASRKICFVCKKKGAAINCQKDQCLRNFHLPCGQERGCLSQFFGEYKSFCDKHRPTQNIQHGHVGEESCILCCEDLSQQSVENIQSPCCSQAIYHRKCIQKYAHTSAKHFFKCPQCNNRKEFPQEMLRMGIHIPDRDAAWELEPGAFSDLYQRYQHCDAPICLYEQGRDSFEDEGRWCLILCATCGSHGTHRDCSSLRSNSKKWECEECSPAAATDYIPENSGDIPCCSSTFHPEEHFCRDNTLEENPGLSWTDWPEPSLLEKPESSRGRRSYSWRSKGVRITNSCKKSK
notes: PHD finger protein 7, human; also called PHF7; source: insect cell/baculovirus, purified, spotted (Invitrogen Protoarray v4.0)
B11: Leupaxin (natural protein, human, UniProt O60711-1 1-386, looked up)
chain: MEELDALLEELERSTLQDSDEYSNPAPLPLDQHSRKETNLDETSEILSIQDNTSPLPAQLVYTTNIQELNVYSEAQEPKESPPPSKTSAAAQLDELMAHLTEMQAKVAVRADAGKKHLPDKQDHKASLDSMLGGLEQELQDLGIATVPKGHCASCQKPIAGKVIHALGQSWHPEHFVCTHCKEEIGSSPFFERSGLAYCPNDYHQLFSPRCAYCAAPILDKVLTAMNQTWHPEHFFCSHCGEVFGAEGFHEKDKKPYCRKDFLAMFSPKCGGCNRPVLENYLSAMDTVWHPECFVCGDCFTSFSTGSFFELDGRPFCELHYHHRRGTLCHGCGQPITGRCISAMGYKFHPEHFVCAFCLTQLSKGIFREQNDKTYCQPCFNKLFPL
notes: Leupaxin, human; also called LPXN; source: insect cell/baculovirus, purified, spotted (Invitrogen Protoarray v4.0)

target: T1, NEMO (NF-κB essential modulator), tag-free, biotinylated (human, UniProt Q9Y6K9 1-419, biotin (in vitro biotinylation kit, biotin:NEMO molar ratio 9:1)); experiment: peptide or protein array; Invitrogen Protoarray v4.0, about 8,400 human proteins spotted on nitrocellulose-coated glass slides; 10 µg biotinylated tag-free NEMO in 120 µl probing buffer (PBS, 0.5 mM DTT, 5 mM MgCl2, 5% glycerol, 0.05% Triton X-100), 4°C, 1.5 h; bound NEMO detected with labelled streptavidin; hits Z-score > 3, hits of the biotin-GST control array subtracted; conditions: both partners purified
T1 construct: NEMO, NF-κB essential modulator, human, 48 kDa; also called biotinylated NEMO; biotin-NEMO; source: E. coli BL21(DE3), purified (glutathione sepharose), GST removed with thrombin, biotinylated in vitro

Row | Binder | binding result
1 | B1 | binds
2 | B2 | binds
3 | B3 | binds
4 | B4 | binds
5 | B5 | binds
6 | B6 | binds
7 | B7 | binds
8 | B8 | binds
9 | B9 | binds
10 | B10 | binds
11 | B11 | binds
